The text below walks through data of US20090029370, “REAL TIME NUCLEIC ACID DETECTION IN VIVO USING PROTEIN COMPLEMENTATION” (TRUSTEES OF BOSTON UNIVERSITY, published 2009).

What all share (conditions): protein: synthetic; tags: custom-synthesized peptide
Data set [1] concerns the target T1, Rex peptide (printed HIV-1 Rex in tables, HTLV-1 Rex in text) (Human T-cell leukemia virus type 1?).
T1 chain: MPKTRRRPRRSQRKRP
Nature of the data set: EMSA; 50 mM Tris-HCl pH 8.0, 50 mM KCl, 30 C. In general terms: Mobility shift assays separate free from complexed probe on a gel.

The target of another data set is T2, λN peptide (Bacteriophage lambda, UniProt P03045 SEQ:1-22).
T2 chain: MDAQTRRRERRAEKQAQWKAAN
Nature of the data set: EMSA; 50 mM Tris-HCl pH 8.0, 50 mM KCl, 30 C.

Data set [2] concerns the target Rev peptide (printed HTLV-1 Rev). Nature of the data set: EMSA; cross-reactivity; 50 mM Tris-HCl pH 8.0, 50 mM KCl, 30 C.
Data set [3] addresses T1, Rex peptide (printed HIV-1 Rex in …). The experiment in a line: EMSA; 50 mM Tris-HCl pH 8.0, 50 mM KCl, 30 C, ethidium bromide stain. The source says:
Experiments in vitro to choose aptamer-peptide pairs. Based on available data we chose three peptide/aptamer pairs; (i) […]; (ii) Bacterophage λN; and (iii) […] (see Table 1) and tested their binding affinity with cognate partner and cross-reactivity with two other RNA aptamers in vitro. We used non-radioactive gel-shift assay under conditions when fixed concentrations of RNA aptamer were allowed to form complexes with increasing ARM-peptide concentrations. We quantified the amount of the unbound RNA aptamer and the amount of the shifted complex (Table 1). […] At the same time, […] peptide did show some cross-reactivity with the two non-matched RNA aptamers.
In Vitro Gel-Shift Assay. RNAs were first denatured by heating at 95° C. in buffer (50 mM pH 8.0 Tris-HCl, 50 mM KCl) for 3 minutes and then slowly cooled to room temperature to renature the RNAs. Renatured RNAs and peptides were mixed in a common buffer (50 mM Tris-HCl, pH 8.0, 50 mM KCl) at 30° C. for 15 minutes. Peptide-RNA aptamer complexes were analyzed using gel electrophoresis with 15% TBE gel. RNA aptamers and peptide-RNA aptamer complexes were stained with ethidium bromide.

B1: λN aptamer (boxB) (ssRNA)
RNA: GGAUCCGGGCCCUGAAGAAGGGCCCUUUCCUUU
As for B1, the results for the binding result (in data set [1]; with λN peptide; in data set [2]) were “no binding”, “binds” and “binds”, respectively.

B2: anti-Rev aptamer (ssRNA)
RNA: GGCUGGACUCGUACUUCGGUACUGGAGAAACAGCC
On to B2, for which the binding result (in data set [1]; in the data set with λN peptide) was “no binding” in each case.

B3: anti-Rex aptamer (ssRNA)
RNA: UAGGCGACGGUACGCAAGUACUCUUGCGCCGGCCUA
On to B3, for which the binding result in data set [3] was “binds”; in the data set with λN peptide, “no binding”.
